Measurements published in paper doi:10.1101/2022.10.13.512040 (bioRxiv, 2022).
Values belong to the binder of their own block, whether it stands above or below them.

How the values were obtained:
[1] = molecular target: Arabidopsis thaliana PIN1 (PIN-FORMED 1 auxin transporter) (Arabidopsis thaliana, UniProt Q9C6B8); test: cryo-EM structure
[2] = molecular target: the molecule itself; test: cryo-EM structure

- binding result [1]: binds
B1: sybody-21 (VHH)
VHH: QVQLVESGGGLVQAGGSLRLSCAASGFPVNISWMEWYRQVPGKEREWVAAIQSTGSYTWYADSVKGRFTISRDNAKNTVYLQMNSLKPEDTAVYYCRVKVGAYYRGQGTQVTVSA

B2: Arabidopsis thaliana PIN1 (PIN-FORMED 1 auxin transporter) (natural protein)
chain: MITAADFYHVMTAMVPLYVAMILAYGSVKWWKIFTPDQCSGINRFVALFAVPLLSFHFIAANNPYAMNLRFLAADSLQKVIVLSLLFLWCKLSRNGSLDWTITLFSLSTLPNTLVMGIPLLKGMYGNFSGDLMVQIVVLQCIIWYTLMLFLFEYRGAKLLISEQFPDTAGSIVSIHVDSDIMSLDGRQPLETEAEIKEDGKLHVTVRRSNASRSDIYSRRSQGLSATPRPSNLTNAEIYSLQSSRNPTPRGSSFNHTDFYSMMASGGGRNSNFGPGEAVFGSKGPTPRPSNYEEDGGPAKPTAAGTAAGAGRFHYQSGGSGGGGGAHYPAPNPGMFSPNTGGGGGTAAKGNAPVVGGKRQDGNGRDLHMFVWSSSASPVSDVFGGGGGNHHADYSTATNDHQKDVKISVPQGNSNDNQYVEREEFSFGNKDDDSKVLATDGGNNISNKTTQAKVMPPTSVMTRLILIMVWRKLIRNPNSYSSLFGITWSLISFKWNIEMPALIAKSISILSDAGLGMAMFSLGLFMALNPRIIACGNRRAAFAAAMRFVVGPAVMLVASYAVGLRGVLLHVAIIQAALPQGIVPFVFAKEYNVHPDILSTAVIFGMLIALPITLLYYILLGL
- binding result [2]: binds
